# Results: patent publication US20260116960A1 (SHANGHAI HONGCHENG BIOPHARMACEUTICAL, published 2026)
# B1: HC010-F15 (trispecific antibody, human IgG4 S228P, kappa)
# heavy 1: QVQLVESGGGVVQPGRSLRLSCAASGFTFSSYTMHWVRQAPGKGLEWVTFISYDGNNKYYADSVKGRFTISRDNSKNTLYLQMNSLRAEDTAIYYCARTGWLGPFDYWGQGTLVTVSSASTKGPSVFPLAPCSRSTSESTAALGCLVKDYFPEPVTVSWNSGALTSGVHTFPAVLQSSGLYSLSSVVTVPSSSLGTKTYTCNVDHKPSNTKVDKRVESKYGPPCPPCPAPEFLGGPSVFLFPPKPKDTLMISRTPEVTCVVVDVSQEDPEVQFNWYVDGVEVHNAKTKPREEQFNSTYRVVSVLTVLHQDWLNGKEYKCKVSNKGLPSSIEKTISKAKGQPREPQVYTLPPCQEEMTKNQVSLWCLVKGFYPSDIAVEWESNGQPENNYKTTPPVLDSDGSFFLYSRLTVDKSRWQEGNVFSCSVMHEALHNHYTQKSLSLSLGAGGGGSGGGGSGGGGSGGGGSEVQLVESGGGLVQPGGSLRLSCAASGYTFTNYGMNWVRQAPGKCLEWVGWINTYTGEPTYAADFKRRFTFSLDTSKSTAYLQMNSLRAEDTAVYYCAKYPHYYGSSHWYFDVWGQGTLVTVSSGGGGSGGGGSGGGGSGGGGSDIQMTQSPSSLSASVGDRVTITCSASQDISNYLNWYQQKPGKAPKVLIYFTSSLHSGVPSRFSGSGSGTDFTLTISSLQPEDFATYYCQQYSTVPWTFGCGTKVEIK
# heavy 2: EVQLVESGGGLVQPGGSLRLSCAASGFTFSSYGMSWVRQAPGKCLEWVSTISGGGRDTYYPDSVKGRFTISRDNSKNTLYLQMNSLRAEDTAVYYCARQNGITWFADWGQGTLVTVSSGGGGSGGGGSGGGGSGGGGSDIQMTQSPSSLSASVGDRVTITCRASESVDNYGISFMNWYQQKPGKAPKLLIYAASNQGSGVPSRFSGSGSGTDFTLTISSLQPEDFATYYCQQSKEVPWTFGCGTKVEIKGGGGSGGGGSGGGGSGGGGSESKYGPPCPPCPAPEFLGGPSVFLFPPKPKDTLMISRTPEVTCVVVDVSQEDPEVQFNWYVDGVEVHNAKTKPREEQFNSTYRVVSVLTVLHQDWLNGKEYKCKVSNKGLPSSIEKTISKAKGQPREPQVCTLPPSQEEMTKNQVSLSCAVKGFYPSDIAVEWESNGQPENNYKTTPPVLDSDGSFFLVSRLTVDKSRWQEGNVFSCSVMHEALHNRFTQKSLSLSLGAGGGGSGGGGSGGGGSGGGGSEVQLVESGGGLVQPGGSLRLSCAASGYTFTNYGMNWVRQAPGKCLEWVGWINTYTGEPTYAADFKRRFTFSLDTSKSTAYLQMNSLRAEDTAVYYCAKYPHYYGSSHWYFDVWGQGTLVTVSSGGGGSGGGGSGGGGSGGGGSDIQMTQSPSSLSASVGDRVTITCSASQDISNYLNWYQQKPGKAPKVLIYFTSSLHSGVPSRFSGSGSGTDFTLTISSLQPEDFATYYCQQYSTVPWTFGCGTKVEIK
# light: not shown
# notes: Knob-into-hole heterodimer; light: ipilimumab VL-kappa; also called H010-F15
# B2: HC010-F7 (trispecific antibody, human IgG4 S228P, kappa)
# heavy: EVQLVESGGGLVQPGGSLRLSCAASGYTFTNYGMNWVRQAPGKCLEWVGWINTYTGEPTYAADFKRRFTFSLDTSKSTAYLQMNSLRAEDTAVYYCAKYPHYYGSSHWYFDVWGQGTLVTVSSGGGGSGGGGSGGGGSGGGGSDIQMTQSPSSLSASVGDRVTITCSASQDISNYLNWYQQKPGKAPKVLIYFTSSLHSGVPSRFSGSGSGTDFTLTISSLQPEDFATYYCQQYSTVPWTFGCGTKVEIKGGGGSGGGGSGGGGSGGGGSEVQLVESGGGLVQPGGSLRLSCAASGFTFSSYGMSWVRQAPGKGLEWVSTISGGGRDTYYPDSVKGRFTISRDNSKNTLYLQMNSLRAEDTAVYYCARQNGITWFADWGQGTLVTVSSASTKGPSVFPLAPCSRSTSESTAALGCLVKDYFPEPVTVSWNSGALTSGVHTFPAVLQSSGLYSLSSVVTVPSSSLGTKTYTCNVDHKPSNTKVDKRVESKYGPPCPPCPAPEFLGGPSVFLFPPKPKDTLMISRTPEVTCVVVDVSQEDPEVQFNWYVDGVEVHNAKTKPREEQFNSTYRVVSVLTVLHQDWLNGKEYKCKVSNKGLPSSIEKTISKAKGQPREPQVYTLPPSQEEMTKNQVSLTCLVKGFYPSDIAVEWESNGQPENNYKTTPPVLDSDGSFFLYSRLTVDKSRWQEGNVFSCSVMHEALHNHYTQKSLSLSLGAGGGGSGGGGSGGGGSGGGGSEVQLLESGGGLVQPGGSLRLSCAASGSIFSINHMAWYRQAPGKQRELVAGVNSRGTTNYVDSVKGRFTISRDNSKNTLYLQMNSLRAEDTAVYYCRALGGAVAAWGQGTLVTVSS
# light: DIQMTQSPSSLSASVGDRVTITCRASESVDNYGISFMNWYQQKPGKAPKLLIYAASNQGSGVPSRFSGSGSGTDFTLTISSLQPEDFATYYCQQSKEVPWTFGGGTKVEIKRTVAAPSVFIFPPSDEQLKSGTASVVCLLNNFYPREAKVQWKVDNALQSGNSQESVTEQDSKDSTYSLSSTLTLSKADYEKHKVYACEVTHQGLSSPVTKSFNRGEC
# notes: light: CQ1-3/1-11 VL-kappa; also called H010-F7
# B3: HC010-F13 (trispecific antibody, human IgG4 S228P, kappa)
# heavy 1: EVQLVESGGGLVQPGGSLRLSCAASGFTFSSYGMSWVRQAPGKGLEWVSTISGGGRDTYYPDSVKGRFTISRDNSKNTLYLQMNSLRAEDTAVYYCARQNGITWFADWGQGTLVTVSSASTKGPSVFPLAPCSRSTSESTAALGCLVKDYFPEPVTVSWNSGALTSGVHTFPAVLQSSGLYSLSSVVTVPSSSLGTKTYTCNVDHKPSNTKVDKRVESKYGPPCPPCPAPEFLGGPSVFLFPPKPKDTLMISRTPEVTCVVVDVSQEDPEVQFNWYVDGVEVHNAKTKPREEQFNSTYRVVSVLTVLHQDWLNGKEYKCKVSNKGLPSSIEKTISKAKGQPREPQVYTLPPCQEEMTKNQVSLWCLVKGFYPSDIAVEWESNGQPENNYKTTPPVLDSDGSFFLYSRLTVDKSRWQEGNVFSCSVMHEALHNHYTQKSLSLSLGAGGGGSGGGGSGGGGSGGGGSEVQLVESGGGLVQPGGSLRLSCAASGYTFTNYGMNWVRQAPGKCLEWVGWINTYTGEPTYAADFKRRFTFSLDTSKSTAYLQMNSLRAEDTAVYYCAKYPHYYGSSHWYFDVWGQGTLVTVSSGGGGSGGGGSGGGGSGGGGSDIQMTQSPSSLSASVGDRVTITCSASQDISNYLNWYQQKPGKAPKVLIYFTSSLHSGVPSRFSGSGSGTDFTLTISSLQPEDFATYYCQQYSTVPWTFGCGTKVEIK
# heavy 2: EVQLLESGGGLVQPGGSLRLSCAASGSIFSINHMAWYRQAPGKQRELVAGVNSRGTTNYVDSVKGRFTISRDNSKNTLYLQMNSLRAEDTAVYYCRALGGAVAAWGQGTLVTVSSGGGGSGGGGSGGGGSGGGGSESKYGPPCPPCPAPEFLGGPSVFLFPPKPKDTLMISRTPEVTCVVVDVSQEDPEVQFNWYVDGVEVHNAKTKPREEQFNSTYRVVSVLTVLHQDWLNGKEYKCKVSNKGLPSSIEKTISKAKGQPREPQVCTLPPSQEEMTKNQVSLSCAVKGFYPSDIAVEWESNGQPENNYKTTPPVLDSDGSFFLVSRLTVDKSRWQEGNVFSCSVMHEALHNRFTQKSLSLSLGAGGGGSGGGGSGGGGSGGGGSEVQLVESGGGLVQPGGSLRLSCAASGYTFTNYGMNWVRQAPGKCLEWVGWINTYTGEPTYAADFKRRFTFSLDTSKSTAYLQMNSLRAEDTAVYYCAKYPHYYGSSHWYFDVWGQGTLVTVSSGGGGSGGGGSGGGGSGGGGSDIQMTQSPSSLSASVGDRVTITCSASQDISNYLNWYQQKPGKAPKVLIYFTSSLHSGVPSRFSGSGSGTDFTLTISSLQPEDFATYYCQQYSTVPWTFGCGTKVEIK
# light: B2 light
# notes: Knob-into-hole heterodimer; light: CQ1-3/1-11 VL-kappa; One site each for PD-1 and CTLA-4; also called H010-F13
# B4: HC010-F11 (trispecific antibody, human IgG4 S228P, kappa)
# heavy: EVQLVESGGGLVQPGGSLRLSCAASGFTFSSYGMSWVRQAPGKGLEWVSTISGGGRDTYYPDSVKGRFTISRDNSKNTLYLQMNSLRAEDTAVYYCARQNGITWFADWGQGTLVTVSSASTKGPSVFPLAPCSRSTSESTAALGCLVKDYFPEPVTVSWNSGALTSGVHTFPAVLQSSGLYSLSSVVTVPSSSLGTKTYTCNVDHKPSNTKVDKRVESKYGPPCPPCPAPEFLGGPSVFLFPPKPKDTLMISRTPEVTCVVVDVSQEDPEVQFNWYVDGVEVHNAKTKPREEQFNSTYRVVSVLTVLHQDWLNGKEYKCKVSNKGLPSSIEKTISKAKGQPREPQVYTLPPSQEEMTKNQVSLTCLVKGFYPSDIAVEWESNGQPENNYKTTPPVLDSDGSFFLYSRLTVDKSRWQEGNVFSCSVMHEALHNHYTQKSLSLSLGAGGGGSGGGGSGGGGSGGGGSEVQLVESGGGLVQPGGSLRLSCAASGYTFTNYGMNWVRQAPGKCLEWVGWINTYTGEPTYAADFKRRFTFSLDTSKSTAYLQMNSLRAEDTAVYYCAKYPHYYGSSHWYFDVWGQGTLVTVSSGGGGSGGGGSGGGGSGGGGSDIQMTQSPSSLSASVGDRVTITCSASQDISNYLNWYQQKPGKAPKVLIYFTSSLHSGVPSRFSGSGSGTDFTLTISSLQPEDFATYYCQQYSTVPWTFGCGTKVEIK
# light: DIQMTQSPSSLSASVGDRVTITCRASESVDNYGISFMNWYQQKPGKAPKLLIYAASNQGSGVPSRFSGSGSGTDFTLTISSLQPEDFATYYCQQSKEVPWTFGGGTKVEIKRTVAAPSVFIFPPSDEQLKSGTASVVCLLNNFYPREAKVQWKVDNALQSGNSQESVTEQDSKDSTYSLSSTLTLSKADYEKHKVYACEVTHQGLSSPVTKSFNRGECGGGGSGGGGSGGGGSGGGGSEVQLLESGGGLVQPGGSLRLSCAASGSIFSINHMAWYRQAPGKQRELVAGVNSRGTTNYVDSVKGRFTISRDNSKNTLYLQMNSLRAEDTAVYYCRALGGAVAAWGQGTLVTVSS
# notes: light: CQ1-3/1-11 VL-kappa - (G4S)4 - 202F1 VHH; also called H010-F11
# Biological target: human PD-1 protein (Acro, PD1-H5257) (human, UniProt Q15116 25-167)
# Experiment: competitive ELISA, PD-1 coated, biotin-PD-L1 as labelled ligand
# Method: The next day, the plate was washed three times with PBS solution and blocked with 1% BSA-PBS solution at 37° C. for 1 hour. […] 100 μL of the antibody-protein mixture was added to each well of the blocked 96-well ELISA plate and incubated at 37° C. for 1 hour. After washing four times with PBST, 100 μL of Strep-HRP (BD, Catalog No. 554066) diluted 1:5000 was added to each well of the ELISA plate and incubated at 37° C. for 1 hour. After washing 4 times with PBST, TMB was used for color development. The absorbance at 450 nm and 630 nm was detected by a microplate reader, and OD450-OD630 was calculated. The fluorescence intensity was fitted using a four-parameter model, and the IC₅₀ value of the blocking activity of each antibody was calculated.
# Sequence of human PD-1 protein (Acro, PD1-H5257) (Q15116 25-167 limits assumed): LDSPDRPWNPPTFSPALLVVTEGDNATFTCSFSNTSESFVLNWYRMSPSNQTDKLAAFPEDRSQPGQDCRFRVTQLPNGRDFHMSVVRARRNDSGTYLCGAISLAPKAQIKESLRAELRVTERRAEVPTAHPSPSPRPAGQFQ
row,Binder,IC50
1,B1,2220 pM
2,B2,433 pM
3,B3,1630 pM
4,B4,830 pM

# Biological target: T1, human CTLA-4 on the cell surface (human, UniProt P16410 36-223)
# T1 construct: whole, on cells; also called CHO-hCTLA-4 cells; CHOK1-hCTLA4 cells
# Experiment: flow cytometry competition, 293T-hPD-1-hCTLA-4 cells (PD-1 co-expressed), biotin-human CD80
# Method: PD-1 and CTLA-4 are co-expressed on functionally exhausted T cells in the tumor microenvironment, and the expression level of PD-1 is higher than that of CTLA-4. […] 200 μL of the cells were added to a 96-well U-bottom plate, approximately 1.4×10⁵ cells/well. After centrifugation at 300 g for 5 minutes, the supernatant was discarded. […] After washing three times with FACS buffer, 100 μL/well of 1:800 diluted PE Streptavidin was added and incubated at 4° C. for 50 min. After washing three times with FACS buffer, 150 μL/well of PBS was added to resuspend the cells, and the fluorescence signal was detected on a flow cytometer (BECKMAN COULTER cytoFLEX). The binding activity was fitted using a four-parameter model, and the IC₅₀ value of the blocking activity of each antibody was calculated.
# T1 sequence (P16410 36-223): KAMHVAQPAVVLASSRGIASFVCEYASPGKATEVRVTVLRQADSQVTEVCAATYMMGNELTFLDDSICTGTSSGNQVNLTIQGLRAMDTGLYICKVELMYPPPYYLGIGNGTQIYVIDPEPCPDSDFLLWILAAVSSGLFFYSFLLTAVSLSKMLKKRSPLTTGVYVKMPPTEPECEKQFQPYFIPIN
row,Binder,IC50
1,B2,55 pM
2,B3,66 pM
3,B4,76 pM

# Biological target: T2, human VEGF165-his protein (Acro, Catalog No. VE5-H5248) (human, UniProt P15692-4 27-191)
# T2 construct: Bought protein; also called hVEGF165-His; VEGFA; not shown: his tag
# Experiment: ELISA, plate coated with human VEGF165-his
# Method: (§1) ELISA was used to determine the activity of the trispecific antibodies binding to the PD-1 protein: 1 μg/mL human PD-1 protein (Acro, Catalog No.: PD1-H5221) was used to coat a high-adsorption 96-well ELISA plate and incubated at 4° C. overnight. On the next day, the plate was washed three times with PBST solution and blocked with 1% BSA-PBS solution at 37° C. for 1 hour. At the same time, 3-fold gradient dilutions of the antibody were prepared with 1% BSA-PBS solution, with a starting concentration of 10 nM. The antibodies of each gradient concentration were added to the blocked 96-well ELISA plate at 100 µL/well in triplicate and incubated at 37° C. for 1 hour. The plate was then washed three times with 0.05% PBST solution, and 100 μL/well of HRP-labeled secondary antibody (Sigma, Catalog No.: A0170) diluted at 1:5000 was added to the ELISA plate and incubated at 37° C. for 1 hour. The plate was washed three times with 0.05% PBST solution and developed with TMB. The absorbance of the 96-well ELISA plate at 450 nm was detected by an ELISA reader. The OD₄₅₀ value was fitted using a four-parameter model to calculate the EC₅₀ value of each antibody binding to PD-1.
# The binding activity of the trispecific antibodies to VEGFA protein was detected by ELISA method as described in Section 2.1. The used human VEGF165-his protein was purchased from Acro, Catalog No.: VE5-H5248.
# T2 sequence (P15692 other isoform, or with tags, fused parts or gaps limits assumed): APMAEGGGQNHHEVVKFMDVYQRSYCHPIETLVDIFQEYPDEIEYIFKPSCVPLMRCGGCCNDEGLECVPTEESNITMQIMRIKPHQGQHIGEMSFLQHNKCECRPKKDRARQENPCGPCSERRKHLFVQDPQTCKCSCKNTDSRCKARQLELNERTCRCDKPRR
row,Binder,EC50
1,B1,87 pM
2,B2,81 pM
3,B3,98 pM
4,B4,125 pM

# Biological target: T3, human PD-1 protein (Acro, Catalog No. PD1-H5221) (human, UniProt Q15116 25-167)
# T3 construct: Bought protein; also called human PD1-his; not shown: his tag
# Experiment: ELISA, plate coated with human PD-1 protein
# Method: as §1
# T3 sequence (Q15116 25-167 limits assumed): as the sequence (Q15116 25-167 limits assumed) above
row,Binder,EC50
1,B1,712 pM
2,B2,85 pM
3,B3,307 pM
4,B4,114 pM

# Biological target: T4, human PD-1 on the cell surface (human, UniProt Q15116 25-288)
# T4 construct: whole, on cells; also called cell surface PD-1
# Experiment: flow cytometry competition, 293T-hPD-1 cells, biotin-human PD-L1
# Method: 50 μL of antibody solution serially diluted 3-fold in FACS buffer was added in triplicate, with a starting concentration of 200 nM. After mixing, incubated at 4° C. for 60 minutes. After washing three times with FACS buffer, 100 μL/well of 1:800 diluted PE Streptavidin was added and incubated at 4° C. for 50 min. After washing three times with FACS buffer, 150 μL/well of PBS was added to resuspend the cells, and the fluorescence signal was detected on a flow cytometer (BECKMAN COULTER cytoFLEX). The four-parameter model was used to fit the binding activity and the IC₅₀ value of the blocking activity of each antibody was calculated.
# T4 sequence (Q15116 25-288): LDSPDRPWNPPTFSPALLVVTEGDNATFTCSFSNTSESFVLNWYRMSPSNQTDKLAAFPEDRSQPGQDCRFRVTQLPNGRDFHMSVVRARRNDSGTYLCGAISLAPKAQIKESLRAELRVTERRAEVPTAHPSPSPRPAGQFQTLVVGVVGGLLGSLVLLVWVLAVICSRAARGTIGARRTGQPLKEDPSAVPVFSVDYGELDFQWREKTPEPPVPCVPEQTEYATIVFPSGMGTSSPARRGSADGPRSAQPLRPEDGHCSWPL
row,Binder,IC50
1,B1,326000 pM
2,B2,3700 pM
3,B3,69900 pM
4,B4,5580 pM

# Biological target: T5, human CTLA-4 protein (Acro, Catalog No. CT4-H52H9) (human, UniProt P16410 36-161)
# T5 construct: Bought protein
# Experiment: ELISA, plate coated with human CTLA-4 protein
# T5 sequence (P16410 36-161 limits assumed): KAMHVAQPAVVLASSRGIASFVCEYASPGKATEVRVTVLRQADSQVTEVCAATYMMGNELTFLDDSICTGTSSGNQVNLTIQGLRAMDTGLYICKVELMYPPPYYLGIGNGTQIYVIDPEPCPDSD
row,Binder,EC50
1,B2,59 pM
2,B3,438 pM
3,B4,44 pM
